Test results taken from PMC2865030.

What was measured:
Test in all cases: ITC
[1] = target: yeast Hsp90 M705V (His-tagged) (yeast) (UniProt P02829)
[2] = target: C-terminal domain of yeast Hsp90 (yeast)
[3] = target: yeast Hsp90 (wild type, His-tagged) (yeast) (UniProt P02829)

Kd [1]: 13000 nM
stoichiometry N [1]: 0.83
Kd [2]: 320 nM
stoichiometry N [2]: 0.93
Kd [3]: 780 nM
stoichiometry N [3]: 1.1
B1: Tah1 (TPR-containing protein associated with Hsp90) (natural protein)
chain: MSQFEKQKEQGNSLFKQGLYREAVHCYDQLITAQPQNPVGYSNKAMALIKLGEYTQAIQMCQQGLRYTSTAEHVAIRSKLQYRLELAQGAVGSVQIPVVEVDELPEGYDRS
